From paper PMC6197793, “Optimized Enzymatic Synthesis of Feruloyl Derivatives Catalyzed by Three Novel Feruloyl Esterases from Talaromyces wortmannii in Detergentless Microemulsions” (Computational and Structural Biotechnology Journal, 2018)

Columns and labels:
Assay in all cases: transesterification rate, HPLC, Michaelis-Menten fit
Assay type in all cases: biochemical, Talaromyces wortmannii
[1] = substrate: C=COC(=O)/C=C/c1ccc(O)c(OC)c1; details: acyl donor, co-substrate 200 mM prenol, system I microemulsion (5.0% buffer), MOPS-NaOH pH 6.0, 40 °C, 8 h
Source text: transesterification rate, HPLC, Michaelis-Menten fit on Fae68

[2] = substrate: C=COC(=O)/C=C/c1ccc(O)c(OC)c1; details: acyl donor, co-substrate 200 mM prenol, detergentless microemulsion n-hexane: t-butanol: 100 mM MOPS-NaOH pH 6.0 (system II, 3.2% buffer), 40 °C, 8 h
Source text: transesterification rate, HPLC, Michaelis-Menten fit on Fae125

[3] = substrate: C=COC(=O)/C=C/c1ccc(O)c(OC)c1; details: acyl donor, co-substrate 200 mM prenol, system II microemulsion, MOPS-NaOH pH 6.0, 40 °C, 8 h
Source text: transesterification rate, HPLC, Michaelis-Menten fit on Fae7262

B1: Fae68 (Talaromyces wortmannii) (protein)
chain: LPETHLQARGQSTSASSQSFQAKCEAFSSKINGQKKNAFQNDITLHSVTYIPSGGNISMATIPSVCANNAISTASPVEFCRVSLNVTTSSTSQIYMEAWLPGNYTGRFLSTGNGGLGGCIQYSDMLYATQFGFATVGTNNGHFGDTGKYFLGNTEILEDFAYRALHTGVVIGKELAKLFYTQISSGYNKSYYLGCSTGGRQGWKSLEKFPDDFDGVVAGSPAFNFINLSNWGARFLGITGDNTSDTFVTATQWGNLIHDEIIRQCDALDGAVDGIIEDPDLCHPVFETLICNSSSTASSSCLTGVQANTVNQVFTPLIGEDGKWLYPRMQPGSEVLAAYIYYSGQPFQYSTDWFRYVVYNNSAWDPTTWTLADAAAADRQDPFDISTWDSSLVSGFQKKGGKVLHYHGMEDPIITSDSSKAWYKYLADSTNTSPSELDEFYRFFAISGMGHCSPGSGASYIGQGVGTYVPGSEQHPEDNVLMAMVQWVEEGIAPEFVRGAKVASNGSVEYTRKHCKFPKRNVYVGPGNYTDENAWECV
notes: expressed in low-background C1 (Myceliophthora thermophila) strain; EC 3.1.1.73
- Km [1]: 16.3 ± 3.7 mM

B2: Fae125 (Talaromyces wortmannii) (protein)
chain: QQSLWGQCGGTGWTGPTQCVSGACCQVQNPYYSQCIQGNCSPASSTSSTKTTATSVSTTTSARPSGTSLSSGCGKTLSLHSGTYTTTVSGQQRQYTLTLPQNYSPNKAYQLIFGYHWLSGTMQDVVSGSYYGIQPLAGDNAIFVAPQGLNNGWGNTNGDDITFTDQMLSTLENALCIDQTQIYSMGWSYGGAMSYALACARPNVFRAVAVMSGANLSGCSPGTQPVAYYAQHGVSDSVLPFSLGEGIRDTFVKDNHCTPTNPPAPAAGSGTHIKTEYSGCDSGHPVWWVAFDGPHEPLATDAGTSSSWTPGQIWSFFSLFH
notes: expressed in low-background C1 (Myceliophthora thermophila) strain; CBM1 predicted at residues 4-30; EC 3.1.1.73
- Km [2]: 21.2 ± 7.4 mM

B3: Fae7262 (Talaromyces wortmannii) (protein)
chain: ASLTQVNNFGDNPGSLQMYIYVPNTLASKPAVIVAMHPCGGSATEYYGMYDYHSPADQYGYILIYPSATRDYNCFDAYSSSSLTHNGGSDSLSIVNMVKYVISTYGADSSKVYMTGSSSGAIMTNVLAGAYPDVFAAGSAFSGMPYACLYGAGAADPIMSNQTCSQGQIQHTGQQWAAYVHNGYPGYTGRYPRLQMWHGTADNVISYADLGQEISQWTTVMGLSFTGNQTNTPLSGYTKMVYGDGSQFQAYSAAGVGHFVPTDVSVVLDWFGITSGTTTTTTSKTTSATTSTTSSAPSSTGGCTAAHWAQCGGIGYTGCTACVSPYTCQKSNDYYSQCL
notes: as for B1
- Km [3]: 26.2 ± 2.9 mM
